Paper PMC6973309
Like-named read-outs stand apart in the source and are kept apart here.

Columns and labels:
[1] = target: human CX3CR1 (human) (UniProt P49238)
[2] = target: human CX3CR1 (human) (UniProt P49238); experiment: flow cytometry on cells
[3] = target: human CX3CR1 (human) (UniProt P49238); experiment: flow cytometry on cells; remark: listed apart in the source

Sequence of human CX3CR1 (human) (P49238 whole entry): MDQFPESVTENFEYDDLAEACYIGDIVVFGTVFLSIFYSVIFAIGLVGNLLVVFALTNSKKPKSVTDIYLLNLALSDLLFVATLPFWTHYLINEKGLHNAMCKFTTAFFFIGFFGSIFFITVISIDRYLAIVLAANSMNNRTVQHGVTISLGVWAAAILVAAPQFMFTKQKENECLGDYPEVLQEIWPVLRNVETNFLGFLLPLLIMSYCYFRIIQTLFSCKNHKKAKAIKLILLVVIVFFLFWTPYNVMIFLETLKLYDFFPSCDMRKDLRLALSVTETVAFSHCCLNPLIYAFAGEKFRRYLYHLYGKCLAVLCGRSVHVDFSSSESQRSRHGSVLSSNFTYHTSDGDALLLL

## BI 655088 (VHH)
[1]
  Chemotaxis IC50 (blocks m3 with m1): 2.7 nM
  Ligand Internalization IC50 (blocks m3 with m1): 0.33 nM
[2]
  IC50: 1.6 nM
[3]
  IC50: 0.4 nM

## BI 655089 (Fc fusion)
[1]
  Chemotaxis IC50 (blocks m3 with m1): 3 nM
  Ligand Internalization IC50 (blocks m3 with m1): 0.37 nM
[3]
  IC50: 0.7 nM
